Settings: Escherichia coli (strain K12), CD, reversible: yes, whole UniProt chain shown
[1] = pH 3, Thermal, glycine-HCl 10 mM
[2] = pH 5.5, 25 °C, Urea, Sodium acetate 10 mM, NaCl 0.1 M

B1: Ribonuclease HI wild type, P0A7Y4 (protein)
chain: MLKQVEIFTDGSCLGNPGPGGYGAILRYRGREKTFSAGYTRTTNNRMELMAAIVALEALKEHCEVILSTDSQYVRQGITQWIHNWKKRGWKTADKKPVKNVDLWQRLDAALGQHQIKWEWVKGHAGHPENERCDELARAAAMNPTLEDTGYQVEV
Tm [1]: 49.8 °C | unfolding enthalpy (van 't Hoff) [1]: 98.1 kcal/mol | denaturant m value [2]: 1.96 kcal/mol/M | denaturant midpoint (higher = more stable) [2]: 5.01 M | unfolding free energy [2]: 9.81 kcal/mol

Reference: FireProtDB (doi:10.1111/j.1432-1033.1992.tb16932.x)
